The record followed here is patent US20130156761A1.

The assay deals with human CX3CR1 with FLAG tag at N-terminus, stably expressed on HEK293T cells (Multispan) (human) (UniProt P49238). Put plainly: cell-based or functional assay.
Sequence of human CX3CR1 with FLAG tag at N-terminus, stably expressed on HEK293T cells (Multispan) (human) (P49238 whole entry): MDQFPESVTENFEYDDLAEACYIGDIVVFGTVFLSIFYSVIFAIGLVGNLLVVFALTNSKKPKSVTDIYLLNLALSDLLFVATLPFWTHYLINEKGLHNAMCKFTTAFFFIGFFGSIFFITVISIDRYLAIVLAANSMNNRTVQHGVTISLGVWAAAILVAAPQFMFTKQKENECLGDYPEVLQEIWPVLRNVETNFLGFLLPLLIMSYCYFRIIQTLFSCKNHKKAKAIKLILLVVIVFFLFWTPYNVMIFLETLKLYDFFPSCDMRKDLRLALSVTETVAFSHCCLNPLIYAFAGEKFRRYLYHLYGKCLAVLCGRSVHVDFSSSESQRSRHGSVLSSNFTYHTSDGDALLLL

With “CX3CL1 (control agonist, Peprotech Cat#300-31) (from UniProt P78423 25-100) (ligand)”, the EC80 of calcium flux was determined as 40 nM.
